B1: HDV Ribozyme (parent)
chain: GGCCGGCAUGGUCCCAGCCUCCUCGCUGGCGCCGGCUGGGCAACAUUCCGAGGGGACCGUCCCCUCGGUAAUGGCGAAUGGGACCCA

Variants of: B1
Experiment: self-cleavage, relative activity (ratio to wild type); higher = more cleavage; co-transcriptional

Variant | self-cleavage
GGCCGGCAUGGUACCAGCCUCCUCGCUGGCGCCGGCUGGGCAACAUUCCGAGGGGACCUUCCCCUCGGUAAUGGCGAAUGGGACCCA [C13A G59U] | 0.356
GGCCGGCAUGGUACCAGCCUCCUCGCUGGCGCCGGCUGGGCAACAUUCCGAGGGGACCAUCCCCUCGGUAAUGGCGAAUGGGACCCA [C13A G59A] | 0.166
GGCCGGCAUGGUACCAGCCUCCUCACUGGCGCCGGCUGGGCAACAUUCCGAGGGGACCGUCCCCUCGGUAAUGGCGAAUGGGACCCA [C13A G25A] | 0.0277
GGCCGGCAUGGUACCAGCCUCCUCCCUGGCGCCGGCUGGGCAACAUUCCGAGGGGACCGUCCCCUCGGUAAUGGCGAAUGGGACCCA [C13A G25C] | 0.0773
GGCCGGCAUGGUACCAGCCUCCUCGCUGGCGCCGGCUGGGCAACAUUCCGAGGGUACCGUCCCCUCGGUAAUGGCGAAUGGGACCCA [C13A G55U] | 0.0707
GGCCGGCAUGGUACCAGCCUCCUCGCUGGCGCCGGCUGGGCAACAUUCCGAGGGCACCGUCCCCUCGGUAAUGGCGAAUGGGACCCA [C13A G55C] | 0.143
GGCCGGCAUGGUACCAGCCUCCUCGCUGGCGCCGGCUGGGCAACAUUCCGAGGGAACCGUCCCCUCGGUAAUGGCGAAUGGGACCCA [C13A G55A] | 0.222
GGCCGGCAUGGUACCAGCCUCCUCGCUGGCGCCGGCUGGGCAACAUUCCGAGGGGACCGUCCCCUCAGUAAUGGCGAAUGGGACCCA [C13A G67A] | 0.23
GGCCGGCAUGGUACCAGCCUCCUCGCUGGCGCCGGCUGGGCAACAUUCCGAGGGGACCGUCCCCUCCGUAAUGGCGAAUGGGACCCA [C13A G67C] | 0.259
GGCCGGCAUGGUACCAGCCUCCUCGCUGGCGCCGGCUGGCCAACAUUCCGAGGGGACCGUCCCCUCGGUAAUGGCGAAUGGGACCCA [C13A G40C] | 0
GGCCGGCAUGGUACCAGCCUCCUCGCUGGCGCCGGCUGGACAACAUUCCGAGGGGACCGUCCCCUCGGUAAUGGCGAAUGGGACCCA [C13A G40A] | 0.233
GGCCGGCAUGGUACCAGCCUCCUCGCUGGCGCCGGCUGGUCAACAUUCCGAGGGGACCGUCCCCUCGGUAAUGGCGAAUGGGACCCA [C13A G40U] | 0.0326
GGCCGGCAUGGUACCAGCCUCCUCGCUGGCGCCGGCUGGGCAACAUUCCGAGGGGACCGUCCCCUCGGUAAUGGCGAAUGGGACCAA [C13A C86A] | 0.492
GGCCGGCAUGGUACCAGCCUCCUCGCUGGCGCCGGCUGGGCAACAUUCCGAGGGGACCGUCCCCUCGGUAAUGGCGAAUGGGACCGA [C13A C86G] | 0.178
GGCCGGCAUGGUACCAGCCUCCUCGCUGACGCCGGCUGGGCAACAUUCCGAGGGGACCGUCCCCUCGGUAAUGGCGAAUGGGACCCA [C13A G29A] | 0.0268
GGCCGGCAUGGUACCAGCCUCCUCGCUGGCGCCGGCUGAGCAACAUUCCGAGGGGACCGUCCCCUCGGUAAUGGCGAAUGGGACCCA [C13A G39A] | 0.121

Variant | self-cleavage
GGCCGGCAUGGUACCAGCCUCCUCGCUGGCGCCGGCUGGGCAACAUUCCAAGGGGACCGUCCCCUCGGUAAUGGCGAAUGGGACCCA [C13A G50A] | 0.295
GGCCGGCAUGGUACCAGCCUCCUCGCUGGCGCCGGCUGGGCAACAUUCCUAGGGGACCGUCCCCUCGGUAAUGGCGAAUGGGACCCA [C13A G50U] | 0.282
GGCCGGCAUGGUACCAGCCUCCUCGCUCGCGCCGGCUGGGCAACAUUCCGAGGGGACCGUCCCCUCGGUAAUGGCGAAUGGGACCCA [C13A G28C] | 0.111
GGCCGGCAUGGUACCAGCCUCCUCGCUGGCGCCGGCUGGGCAACAUUCCGAGGCGACCGUCCCCUCGGUAAUGGCGAAUGGGACCCA [C13A G54C] | 0.283
GGCCGGCAUGGUACCAGCCUCCUCGCUGGCGCCGGCUGGGCAACAUUCCGAGGAGACCGUCCCCUCGGUAAUGGCGAAUGGGACCCA [C13A G54A] | 0.117
GGCCGGCAUGGUACCAGCCUCCUCGCUGGCGCCAGCUGGGCAACAUUCCGAGGGGACCGUCCCCUCGGUAAUGGCGAAUGGGACCCA [C13A G34A] | 0.131
GGCCGGCAUGGUACCAGCCUCCUCGCUGGCGCCCGCUGGGCAACAUUCCGAGGGGACCGUCCCCUCGGUAAUGGCGAAUGGGACCCA [C13A G34C] | 0.151
GGCCGGCAUGGUACCAGCCUCCUCGCUGGCGCCUGCUGGGCAACAUUCCGAGGGGACCGUCCCCUCGGUAAUGGCGAAUGGGACCCA [C13A G34U] | 0
GGCCGGCAUGGUACCAGCCUCCUCGCUGGCGCCGGCUGGGCAACAUUCCGAGGGGACCGUCCCCUCGGUAAUGGCGAAUGGGACUCA [C13A C85U] | 0.141
GGCCGGCAUGGUACCAGCCUCCUCGCUGGCGCCGGCUGGGCAACAUUCCGAGGGGACCGUCCCCUCGGUAAUGGCGAAUGGGACGCA [C13A C85G] | 0.0396
GGCCGGCAUGGUACCAGCCUCCUCGCUGGCGCCGGCUGGGCAACAUUCCGAGGGGACCGUCCCCUCGGUAAUGGCGAAUGGGAACCA [C13A C84A] | 0.831
GGCCGGCAUGGUACCAGCCUCCUCGCUGGCGCCGGCUGGGCAACAUUCCGAGGGGACCGUCCCCUCGGUAAUGGCGAAUGGGAUCCA [C13A C84U] | 0.227
GGCCGGCAUGGUACCAGCCUCCUCGCUGGCGCCGGCUAGGCAACAUUCCGAGGGGACCGUCCCCUCGGUAAUGGCGAAUGGGACCCA [C13A G38A] | 0.0631
GGCCGGCAUGGUACCAGCCUCCUCGCUGGCGCCGGCUCGGCAACAUUCCGAGGGGACCGUCCCCUCGGUAAUGGCGAAUGGGACCCA [C13A G38C] | 0.106
GGCCGGCAUGGUACCAGCCUCCUCGCUGGCGCCGGCUUGGCAACAUUCCGAGGGGACCGUCCCCUCGGUAAUGGCGAAUGGGACCCA [C13A G38U] | 0.0536
GGCCGGCAUGGUACCAGCCUCCUCGCUGGCGCCGACUGGGCAACAUUCCGAGGGGACCGUCCCCUCGGUAAUGGCGAAUGGGACCCA [C13A G35A] | 0.0339

Source: the RNAGym collection of RNA variant scans (doi:10.7554/elife.80360)
